According to the nanobody polyreactivity screen of Harvey et al. (2022):

Assay: yeast display, Sf9 membrane polyspecificity reagent, FACS + sequencing; frameworks hold sequencing errors
In short: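 In a synthetic yeast display library (Saccharomyces cerevisiae BJ5465), nanobody expression was induced with galactose for 36–48 hours. FACS gates were set low and high (top ~1%) using anti-HA fluorescence for expression and streptavidin fluorescence for binding of the Sf9 membrane reagent. Each polyreactivity label is drawn from the gate of origin.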

| Sequence | polyreactivity (PSR sort gate) |
| --- | --- |
| QVQLVESGGGLVQAGGSLRLSCAASGSIFTYYAMGWYRQAPGKERELVAAISGSGGRTYYADSVKGRFTISRDNAKNPVYLQMNSLKPEDTAVYYCAVRSYRRFTHLYYRYDYWGQGTQVTVSS | high polyreactivity |
| QVQLVEKGGGLVQAGGSLRLSCAASGRTFQYYAMGWYRQAPGNERELVAAINQGGGRTYYADSVKGRFTISRDNAKNTVYLQMNSLKPEDTAVYYCAADGLSKFDYWGQGTQVTVSS | low polyreactivity |
| QVQLVDSGGGLVQAGGSLRLSCAASGSILGGNAMGWYRQAPGKERELVAAITFSGGGTYYADSVKGRFTISRDHAKNTVYLQMNSLKPEDTAVYYCAADKDGYTYEFDYWGQGTQVTVSS | low polyreactivity |
| QVQLEESGGGLVQAGGSLRLSCAASGRIFPRNAMGWYRQATGKERELVASITSGGSTNYADSVKGRFTISRDNAKNTVYLQMHSLKPEDTAVYYCAADRTGYQLETTEYDYWGQGTQVTVSS | high polyreactivity |
| QVQLVESGGGLVQAGGSLRLSCAASGGTFAGYAMGWYRQAPGKERELVAAISWSSGRTYYADSVKGRFTISRDIAKNSVYLQMNSLKPEETAVYDCTVLRYRGYDYWGQGTQVTVSS | high polyreactivity |
| QVQLVESGGGLVQAGGSLRLSCAASGSTIGDNAMGWYRQAPGKERELVASITGGGGSTYYADSVKGRFTISRDNAKNTVYLQMNSLKPEDTAVYYCAAVYQSYTYYLPKYWSFYQNDYWGQGTQVTVSS | low polyreactivity |
| QVQLVESGGGLVQAGGSLRLSCAASGITFAYYVMGWYRQAPGKERELVAAITRSGDITSYADSVKGRFTISRDNAKNTVYLQMNSMKPEDTAVYYCNARRGYQSRRYNYWGQGTQVSVSS | high polyreactivity |
| QVQLVESGGGLVQAGGSLRLRCAASGSIFGAYAMAWYRQAPGKERELVAAINSDISTNYADSVKGRFTISRDNAKNTVYFQMTSVKPEDTAVYYCGVDWPRIYLRYNYWGQGTAVTVSS | low polyreactivity |
| QVQLVESGGGLVQAGGSLRLTCAASGSIVDANAMGLYRQAPGKERELVAAISSGDSTSYADSVKGRFTISRDNAKNTVYLQLNSLNPEDTAVYYCNAYVDSQGGFTLKHDYWGQGTQVTVSS | low polyreactivity |
| QVQLVESGGGLVQAGGSLRLSCAASGIIFTGNAMGWYRQAPGKERELVAAITSGDTTNYADSVKGRFTISRDNAKNTVYLQMNSLKPEDTAVYFCAIELQVRQAGDYWGQGTQVTVSS | low polyreactivity |
| QVQLVESGGGLVQAGGSLRLSCAASGRIFPAYAMGWYRQSPGKERELVASIRRGGITYADSVKGRFTISRDNAKNTVSLQMTSLNPEDTAVYYCNAHYRGWGYHMDYWGQGTQVTGSS | low polyreactivity |
| QVQLVESGGGLVQAGGSLRLSCAASGSTFARYAMGWYRQAPGKERELVAAISKGGDRTYYADSVKGRFTISRDNAKNTVYLQMNSLKPEDTAVYYCAARYTPRRYYYWGQGTQVTVSS | high polyreactivity |
| QVLLVESGGGFVQAGGSLRLSCSASGSIFSPYTMGWYRQATGKERELVAAISRGGNTYYADSVKGRFTISRDNAKNTVYLQMNSLKPEDTAVYYCAARAKYDRRTDGTSGYDYWGQGTQVTVSS | low polyreactivity |
| HVQLVESGGGLVQAGGSLRLSCAASGGTFYTYVMGWYRPAPGKERELVAAISGSGGSTYYADSVKGRFTISRDNAKNTVYLQMNSLKPEDTAVYYCAAVLYYGDIPYYYWGQGTQVTVSS | high polyreactivity |
| QVQLVESGGGLVQAGGSLSLSCAASGSIFFNNAMGWYRQAPGKERELVAAITWRDGSTNYADSVKGRFTISRDIAKNTVYLQMNSLKPEDTAVYYCNKVKEFGNVWFLPKYNYWGQGTQVTVSS | low polyreactivity |
| QVQLVDSGGYLVQAGGSLRLSCAASGTTSLFYAMGWYRQAPGKERELVAAISRTGSTHYADSVKGRFTIARANAKYTVYLQMNSLKAEDTAVYYCAAYYRYRSGRYYYWGQGTQVTVSS | high polyreactivity |

| Sequence | polyreactivity (PSR sort gate) |
| --- | --- |
| QVQLVESGGGLVQAGGILRLSCAASGSIFSGYAMGWYRQAPGKERELVAAITWRAASTYYADSVKGRFTISRDNAKNTVYLQMNSLKPEDTAVYYCAKEGWPKPAFYYWGQGTQVTVSS | low polyreactivity |
| QVQLVESGGGLVQAGGSLRLSCAASGRTFPGNAMGWYRQATGKERELVATISSGGTTNYADSVKGRFTISRDNAKNTVYLQMNSLKPEDTAVYYCATDTYHHKADYEYWGQGTQVTVSS | low polyreactivity |
| QVQLVESGGGLVQAGGSLRLSCAASGITFISYAMGWYRQAPGKERELVAGITSDDSTSYADSVKGRFTISRDNAKNTVYLQMNSVKPEDTAVYYCAARSYTLRTSTGRLYRYYYWGQGTQVTVSS | high polyreactivity |
| QVQLVESGGGLVQAGGSLRLSCAASGRIFRAYAMGWYRQAPGKERELVASITGSGGSTYYADSVKGRFTISRDNAKNTVYLQMNSLKPEDTAVYYCAVASYRVWGVGTRFYYWGQGTQVTVSS | high polyreactivity |
| QVQLVESGGGLVQAGGSLRLSCAASGSIFYYYAMGWYRQAPGKERELVASITSGARTNYADSVKGRFTISRDNAKNTVYLQMNILKPEDTAVFYCAADIKWSIRRAYDYWGQGTQVTVSS | high polyreactivity |
| QVQLVESGGGLVQAGGSLRLSCAASGFIFRYYAMGWYRQAPGKERELVAAISKRGGRTYYADSVKGRFTISRDNAKNTVYLQMNSLKPEDTAVYYCAAGVGTVAPDMDYWGQGTQVTVSS | high polyreactivity |
| QVQLVESGGGLVQAGGSLRLSCAASGYIFYFNAMGWYRQAPGKERELVAVISDRDDSTYYADSVKGRFTISRDNAKNTVYLQMNSLKPEDTAVYYCAADGDTYVDDPYDYWGQGTQVTVSS | low polyreactivity |
| QVQLVESGGGLDQAGGSLRLSCAASGTFSRNAMGWYRQAPGKERELLADISGGRSTDYADSVKGRFTISRDNAKNTVYLQMNSLKPEDTAVYYCAAYGYLWWEMDYWGQGTQVTVSS | high polyreactivity |
| QVQLVESGGGLVQAGGSLRLSCAASGNTLWRNAMGWSRQAPGKERELVATISSVGTYYADSVKGRFTISRDNAKNTVYLQMNSLKPEDTAVYYCAARIWAFYSRRYYWGQGTQVTVSS | high polyreactivity |
| QVQLVESGGGLVQAGGSLGLSCAASGRTFSYYAMGWYRQAPGKERELVAAISASGGRTYYADSVKGRFTISRDNAKNTDYLQMNSLTPEDTAVYYCAAGSYQRYAFDYWGQGTQVTVSS | high polyreactivity |
| HVQLVESGGGLVQAGGSLRLSCAASGGIFRGYTMGWYRQAPGKETEFVAAITYGGGGTYYADSVKGRFTISRDNAKNTVYLQMNSLKPEDTAVYYCNADLSDVAVTDHDYWGQGTQVTVSS | low polyreactivity |
| QVQLVESGGGLVQAGGSLRLSCAASGRILSSNAMGWYRQAPRKERELVAAISWSGGSTYYADSVKGRFTISRDNAKNTVYFQMNSLKPEDTAVYYCAAPFTTTFDYWGKGTQVTVSS | low polyreactivity |
| QVQLVESGGGLVQAGGSLRLSCAASGRIFGAYAMGWYRQAPGKERELVAAITSRGGNTYYADSVKGRFTISRDNAKNTVYLQMNSLKPEDTAVYYCAARHDKLRQYYVGQSAFDYWGQGTQVTVSS | low polyreactivity |
| QVHLVESGGGVLQAGVSLRLSCAASGFTFYGNAMGWYRQAAGKERELVAANSGRGGSTYYADSVKGRFTISRDNEKYTVYLHMNSLKPEDTAVYYCDIYVSWPLYYYWGQGTQVTVSS | low polyreactivity |
| QVQLVESGGGLVQAGGSLRLSCAASGSILPTNAMGWYRPAPGKERELVASITYNGGRTSYADSVKGRFTISRDNAKNTVYLQMNSLKPEDTAVYYCAARVWYQGYKSMGYWGQGTQVTVSS | high polyreactivity |
| QVQLVESGGGLVQAGGSLRLSCAASGSIFSINAMGWYRQAPGKERELVAVISWIGGNTYYADSVKGRFTISRDNAKNTVYLKMNSLKPEDTAVYYCAVATGPVSYRRYYCGQGTQVTVSS | high polyreactivity |
